Columns and labels:
[1] = biological target: T1, human CD20 (human, UniProt P11836 1-297); assay: ELISA, reference veltuzumab
T1 construct: whole, on cells
T1 sequence (looked up): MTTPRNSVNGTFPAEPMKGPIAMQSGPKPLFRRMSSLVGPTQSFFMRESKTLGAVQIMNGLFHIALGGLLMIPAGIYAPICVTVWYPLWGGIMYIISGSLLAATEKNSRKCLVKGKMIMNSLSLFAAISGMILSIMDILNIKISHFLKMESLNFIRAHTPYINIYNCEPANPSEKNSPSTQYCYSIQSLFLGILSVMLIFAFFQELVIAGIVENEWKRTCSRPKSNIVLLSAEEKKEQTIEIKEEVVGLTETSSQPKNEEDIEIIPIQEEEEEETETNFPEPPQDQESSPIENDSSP

[2] = biological target: T1, human CD20; assay: flow cytometry on live NHL cells, reference veltuzumab

fold higher binding avidity compared to veltuzumab [1]: 3 fold
fold slower off-rate compared to veltuzumab [2]: 3 fold
B1: 20-(20)-(20) (antibody)
heavy 1: not shown
heavy 2: not shown
light: DIQLTQSPSSLSASVGDRVTMTCRASSSVSYIHWFQQKPGKAPKPWIYATSNLASGVPVRFSGSGSGTDYTFTISSLQPEDIATYYCQQWTSNPPTFGGGTKLEIKRTVAAPSVFIFPPSDEQLKSGTASVVCLLNNFYPREAKVQWKVDNALQSGNSQESVTEQDSKDSTYSLSSTLTLSKADYEKHKVYACEVTHQGLSSPVTKSFNRGEC
modifications: DNL complex locked by disulfide bridges between the cysteines of AD2 and DDD2. Stoichiometry: 2 IgG-AD2 heavy chains, 4 Fd-DDD2 chains, 6 kappa chains. Each unique chain is listed once.
notes: One Fc and 6 anti-CD20 Fabs; also called Hex-hA20; HexAb of veltuzumab
